Results published in doi:10.1101/2024.03.12.584565 (bioRxiv, 2024).

Legend:
Experiment in all cases: pull-down
[1] = target: T1, Flag-tagged Pds5b-WT, treated with Nek2a and Cdk1/2-cyclin A2 in vitro (human, UniProt Q9NTI5 1-1447)
T1 sequence: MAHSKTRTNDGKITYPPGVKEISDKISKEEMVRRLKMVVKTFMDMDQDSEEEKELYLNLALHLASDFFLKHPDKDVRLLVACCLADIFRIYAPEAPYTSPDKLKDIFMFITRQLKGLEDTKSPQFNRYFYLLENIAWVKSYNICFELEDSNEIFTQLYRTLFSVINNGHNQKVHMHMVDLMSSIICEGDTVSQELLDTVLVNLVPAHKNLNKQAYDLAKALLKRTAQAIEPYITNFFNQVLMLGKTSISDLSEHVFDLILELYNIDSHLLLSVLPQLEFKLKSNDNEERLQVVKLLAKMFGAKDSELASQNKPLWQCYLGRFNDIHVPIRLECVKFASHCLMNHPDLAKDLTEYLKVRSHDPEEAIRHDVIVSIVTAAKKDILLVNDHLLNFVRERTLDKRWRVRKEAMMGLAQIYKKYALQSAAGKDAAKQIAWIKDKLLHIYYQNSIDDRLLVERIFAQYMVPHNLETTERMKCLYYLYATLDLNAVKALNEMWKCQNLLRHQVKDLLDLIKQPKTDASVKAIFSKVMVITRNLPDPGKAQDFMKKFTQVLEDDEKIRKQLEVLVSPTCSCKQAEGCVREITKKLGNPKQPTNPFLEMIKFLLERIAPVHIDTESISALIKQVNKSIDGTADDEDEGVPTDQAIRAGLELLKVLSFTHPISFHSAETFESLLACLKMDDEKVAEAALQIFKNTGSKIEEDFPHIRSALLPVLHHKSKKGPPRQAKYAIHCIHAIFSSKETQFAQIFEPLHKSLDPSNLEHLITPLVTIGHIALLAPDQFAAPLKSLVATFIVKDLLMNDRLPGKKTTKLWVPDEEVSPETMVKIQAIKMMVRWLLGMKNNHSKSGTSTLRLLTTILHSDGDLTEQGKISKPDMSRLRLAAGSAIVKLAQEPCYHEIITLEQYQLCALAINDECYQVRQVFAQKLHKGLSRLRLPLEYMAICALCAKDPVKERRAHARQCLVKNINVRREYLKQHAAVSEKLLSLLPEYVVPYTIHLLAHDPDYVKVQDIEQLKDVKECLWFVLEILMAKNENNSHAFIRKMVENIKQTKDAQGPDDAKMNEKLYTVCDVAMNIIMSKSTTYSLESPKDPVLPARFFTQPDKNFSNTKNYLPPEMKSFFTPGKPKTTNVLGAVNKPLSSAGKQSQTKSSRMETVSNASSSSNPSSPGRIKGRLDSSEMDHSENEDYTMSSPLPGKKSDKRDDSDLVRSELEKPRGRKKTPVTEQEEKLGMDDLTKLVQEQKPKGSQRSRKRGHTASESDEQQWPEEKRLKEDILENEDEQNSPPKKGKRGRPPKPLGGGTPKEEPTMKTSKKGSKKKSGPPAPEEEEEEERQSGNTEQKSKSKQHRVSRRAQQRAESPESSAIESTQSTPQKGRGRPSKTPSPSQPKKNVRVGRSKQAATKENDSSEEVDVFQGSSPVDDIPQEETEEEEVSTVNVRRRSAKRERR

[2] = target: T2, Flag-tagged Pds5b-Ser1161,1166Ala (2A), phosphorylated by Nek2a in vitro (human, UniProt Q9NTI5 1-1447, Ser1161,1166Ala | Ser1161,1166Ala)
T2 sequence: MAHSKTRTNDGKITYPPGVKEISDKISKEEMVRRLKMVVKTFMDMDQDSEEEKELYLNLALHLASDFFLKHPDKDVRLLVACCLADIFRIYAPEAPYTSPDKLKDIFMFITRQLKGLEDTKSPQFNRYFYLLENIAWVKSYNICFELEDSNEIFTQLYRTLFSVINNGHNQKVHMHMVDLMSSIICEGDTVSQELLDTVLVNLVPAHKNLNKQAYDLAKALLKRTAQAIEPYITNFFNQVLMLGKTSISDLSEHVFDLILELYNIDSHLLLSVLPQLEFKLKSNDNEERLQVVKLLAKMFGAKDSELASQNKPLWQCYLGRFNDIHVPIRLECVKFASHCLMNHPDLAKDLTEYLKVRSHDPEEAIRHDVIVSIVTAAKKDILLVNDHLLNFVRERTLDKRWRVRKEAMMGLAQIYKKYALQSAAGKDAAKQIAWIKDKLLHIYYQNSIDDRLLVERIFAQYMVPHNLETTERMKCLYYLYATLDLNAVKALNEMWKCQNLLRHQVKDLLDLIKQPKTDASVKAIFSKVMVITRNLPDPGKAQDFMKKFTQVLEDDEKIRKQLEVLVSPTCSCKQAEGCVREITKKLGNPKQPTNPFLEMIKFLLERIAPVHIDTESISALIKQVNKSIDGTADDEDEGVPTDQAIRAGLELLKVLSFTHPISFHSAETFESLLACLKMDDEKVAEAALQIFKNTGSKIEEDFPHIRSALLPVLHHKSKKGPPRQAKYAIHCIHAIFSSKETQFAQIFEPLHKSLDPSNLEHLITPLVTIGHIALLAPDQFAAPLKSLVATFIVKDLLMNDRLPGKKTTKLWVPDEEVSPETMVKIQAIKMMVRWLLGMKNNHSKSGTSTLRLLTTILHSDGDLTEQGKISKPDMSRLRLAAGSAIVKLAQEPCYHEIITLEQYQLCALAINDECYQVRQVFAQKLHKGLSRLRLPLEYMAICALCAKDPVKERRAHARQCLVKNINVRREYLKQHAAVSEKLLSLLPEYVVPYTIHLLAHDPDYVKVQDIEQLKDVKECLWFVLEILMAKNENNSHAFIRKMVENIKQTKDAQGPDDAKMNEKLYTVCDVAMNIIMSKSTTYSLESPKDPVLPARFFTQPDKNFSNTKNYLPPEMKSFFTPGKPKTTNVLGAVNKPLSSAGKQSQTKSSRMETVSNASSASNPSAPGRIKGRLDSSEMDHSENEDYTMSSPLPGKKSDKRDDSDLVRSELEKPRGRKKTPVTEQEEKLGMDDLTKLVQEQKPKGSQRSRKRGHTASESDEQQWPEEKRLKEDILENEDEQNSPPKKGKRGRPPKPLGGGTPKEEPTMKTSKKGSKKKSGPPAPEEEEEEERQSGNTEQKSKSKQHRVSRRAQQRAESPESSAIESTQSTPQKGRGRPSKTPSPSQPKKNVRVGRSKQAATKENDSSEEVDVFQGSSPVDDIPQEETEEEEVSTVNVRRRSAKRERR

[3] = target: T3, Flag-tagged Pds5b, co-expressed with Nek2aΔMR (human, UniProt Q9NTI5 1-1447)
T3 sequence: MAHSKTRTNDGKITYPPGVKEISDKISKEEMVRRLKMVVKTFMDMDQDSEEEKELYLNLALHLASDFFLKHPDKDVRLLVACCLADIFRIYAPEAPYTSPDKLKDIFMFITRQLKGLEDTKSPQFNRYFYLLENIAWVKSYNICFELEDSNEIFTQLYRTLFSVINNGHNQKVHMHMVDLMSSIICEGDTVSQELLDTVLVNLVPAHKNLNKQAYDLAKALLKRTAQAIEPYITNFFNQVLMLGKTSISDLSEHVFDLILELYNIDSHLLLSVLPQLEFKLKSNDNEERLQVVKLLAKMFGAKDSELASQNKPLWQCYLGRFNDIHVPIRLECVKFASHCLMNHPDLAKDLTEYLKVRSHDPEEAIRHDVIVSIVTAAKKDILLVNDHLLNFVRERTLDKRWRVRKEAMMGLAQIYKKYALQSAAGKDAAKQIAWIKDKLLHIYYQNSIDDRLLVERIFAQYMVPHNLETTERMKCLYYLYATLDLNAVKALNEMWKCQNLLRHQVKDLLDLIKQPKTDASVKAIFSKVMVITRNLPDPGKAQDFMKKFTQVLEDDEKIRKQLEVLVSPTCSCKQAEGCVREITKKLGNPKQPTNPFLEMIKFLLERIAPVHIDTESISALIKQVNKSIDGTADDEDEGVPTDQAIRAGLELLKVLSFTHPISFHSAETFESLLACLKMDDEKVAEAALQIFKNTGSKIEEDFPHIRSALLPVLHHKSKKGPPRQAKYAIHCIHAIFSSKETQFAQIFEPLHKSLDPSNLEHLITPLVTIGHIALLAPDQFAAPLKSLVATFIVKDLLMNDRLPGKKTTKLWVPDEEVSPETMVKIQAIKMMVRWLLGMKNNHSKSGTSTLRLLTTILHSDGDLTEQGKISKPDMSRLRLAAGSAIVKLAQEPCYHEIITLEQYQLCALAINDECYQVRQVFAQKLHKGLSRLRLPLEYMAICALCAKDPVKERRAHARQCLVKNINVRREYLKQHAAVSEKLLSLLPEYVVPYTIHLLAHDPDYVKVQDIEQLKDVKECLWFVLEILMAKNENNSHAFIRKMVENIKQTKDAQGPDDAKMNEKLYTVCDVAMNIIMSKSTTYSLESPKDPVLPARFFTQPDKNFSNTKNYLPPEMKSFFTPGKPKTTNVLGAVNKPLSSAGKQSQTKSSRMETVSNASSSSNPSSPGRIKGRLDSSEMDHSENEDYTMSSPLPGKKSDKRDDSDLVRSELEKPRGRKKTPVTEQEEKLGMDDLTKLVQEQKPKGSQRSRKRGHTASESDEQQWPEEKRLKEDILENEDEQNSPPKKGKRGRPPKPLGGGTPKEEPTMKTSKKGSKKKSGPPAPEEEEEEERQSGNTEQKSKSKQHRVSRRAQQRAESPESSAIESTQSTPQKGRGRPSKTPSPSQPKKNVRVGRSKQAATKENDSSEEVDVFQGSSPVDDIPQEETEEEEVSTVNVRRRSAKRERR

[4] = target: T4, Flag-tagged Pds5b, co-expressed with Nek2aΔMR and Δ86-cyclin A2 (human, UniProt Q9NTI5 1-1447)
T4 sequence: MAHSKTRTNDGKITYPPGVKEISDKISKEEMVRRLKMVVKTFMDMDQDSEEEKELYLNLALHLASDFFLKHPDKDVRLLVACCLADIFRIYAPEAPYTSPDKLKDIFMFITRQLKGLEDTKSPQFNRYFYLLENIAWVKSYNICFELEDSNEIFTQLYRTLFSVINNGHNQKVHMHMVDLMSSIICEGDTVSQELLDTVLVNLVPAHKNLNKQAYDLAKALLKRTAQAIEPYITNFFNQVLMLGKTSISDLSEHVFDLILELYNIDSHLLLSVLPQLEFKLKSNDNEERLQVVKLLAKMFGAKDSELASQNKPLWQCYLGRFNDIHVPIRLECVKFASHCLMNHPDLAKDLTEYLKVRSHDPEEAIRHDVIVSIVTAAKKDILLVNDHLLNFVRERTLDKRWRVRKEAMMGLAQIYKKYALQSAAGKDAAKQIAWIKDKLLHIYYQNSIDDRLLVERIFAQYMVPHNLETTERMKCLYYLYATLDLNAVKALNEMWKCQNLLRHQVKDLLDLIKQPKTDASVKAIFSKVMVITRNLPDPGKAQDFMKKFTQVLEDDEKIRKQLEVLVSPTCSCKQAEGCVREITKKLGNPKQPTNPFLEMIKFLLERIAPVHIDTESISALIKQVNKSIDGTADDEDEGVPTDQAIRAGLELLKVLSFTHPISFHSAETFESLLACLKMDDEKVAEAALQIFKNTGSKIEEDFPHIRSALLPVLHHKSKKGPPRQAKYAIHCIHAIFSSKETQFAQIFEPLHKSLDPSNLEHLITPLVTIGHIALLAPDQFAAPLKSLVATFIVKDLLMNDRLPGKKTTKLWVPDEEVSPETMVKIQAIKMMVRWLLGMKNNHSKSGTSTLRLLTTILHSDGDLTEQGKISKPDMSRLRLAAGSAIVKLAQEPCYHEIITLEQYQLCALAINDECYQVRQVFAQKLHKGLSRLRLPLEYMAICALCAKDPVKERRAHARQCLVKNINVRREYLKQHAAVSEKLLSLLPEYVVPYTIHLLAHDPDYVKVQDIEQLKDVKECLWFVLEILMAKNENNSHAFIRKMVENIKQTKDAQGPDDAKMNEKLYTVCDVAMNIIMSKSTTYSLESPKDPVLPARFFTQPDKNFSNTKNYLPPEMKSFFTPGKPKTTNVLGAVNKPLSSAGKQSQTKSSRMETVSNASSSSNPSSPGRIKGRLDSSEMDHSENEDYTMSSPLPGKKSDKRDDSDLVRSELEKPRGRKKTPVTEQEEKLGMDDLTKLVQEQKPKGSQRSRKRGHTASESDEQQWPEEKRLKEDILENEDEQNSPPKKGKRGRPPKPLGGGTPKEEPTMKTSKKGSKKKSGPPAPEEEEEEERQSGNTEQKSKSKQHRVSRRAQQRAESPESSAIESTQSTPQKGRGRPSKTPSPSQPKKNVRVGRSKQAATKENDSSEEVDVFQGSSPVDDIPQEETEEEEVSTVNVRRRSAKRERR

- binding result [1]: binds
- binding result [2]: binds
- binding result [3]: binds
- binding result [4]: binds
B1: recombinant human Wapl (natural protein)
chain: MTSRFGKTYSRKGGNGSSKFDEVFSNKRTTLSTKWGETTFMAKLGQKRPNFKPDIQEIPKKPKVEEESTGDPFGFDSDDESLPVSSKNLAQVKCSSYSESSEAAQLEEVTSVLEANSKISHVVVEDTVVSDKCFPLEDTLLGKEKSTNRIVEDDASISSCNKLITSDKVENFHEEHEKNSHHIHKNADDSTKKPNAETTVASEIKETNDTWNSQFGKRPESPSEISPIKGSVRTGLFEWDNDFEDIRSEDCILSLDSDPLLEMKDDDFKNRLENLNEAIEEDIVQSVLRPTNCRTYCRANKTKSSQGASNFDKLMDGTSQALAKANSESSKDGLNQAKKGGVSCGTSFRGTVGRTRDYTVLHPSCLSVCNVTIQDTMERSMDEFTASTPADLGEAGRLRKKADIATSKTTTRFRPSNTKSKKDVKLEFFGFEDHETGGDEGGSGSSNYKIKYFGFDDLSESEDDEDDDCQVERKTSKKRTKTAPSPSLQPPPESNDNSQDSQSGTNNAENLDFTEDLPGVPESVKKPINKQGDKSKENTRKIFSGPKRSPTKAVYNARHWNHPDSEELPGPPVVKPQSVTVRLSSKEPNQKDDGVFKAPAPPSKVIKTVTIPTQPYQDIVTALKCRREDKELYTVVQHVKHFNDVVEFGENQEFTDDIEYLLSGLKSTQPLNTRCLSVISLATKCAMPSFRMHLRAHGMVAMVFKTLDDSQHHQNLSLCTAALMYILSRDRLNMDLDRASLDLMIRLLELEQDASSAKLLNEKDMNKIKEKIRRLCETVHNKHLDLENITTGHLAMETLLSLTSKRAGDWFKEELRLLGGLDHIVDKVKECVDHLSRDEDEEKLVASLWGAERCLRVLESVTVHNPENQSYLIAYKDSQLIVSSAKALQHCEELIQQYNRAEDSICLADSKPLPHQNVTNHVGKAVEDCMRAIIGVLLNLTNDNEWGSTKTGEQDGLIGTALNCVLQVPKYLPQEQRFDIRVLGLGLLINLVEYSARNRHCLVNMETSCSFDSSICSGEGDDSLRIGGQVHAVQALVQLFLERERAAQLAESKTDELIKDAPTTQHDKSGEWQETSGEIQWVSTEKTDGTEEKHKKEEEDEELDLNKALQHAGKHMEDCIVASYTALLLGCLCQESPINVTTVREYLPEGDFSIMTEMLKKFLSFMNLTCAVGTTGQKSISRVIEYLEHC
